Source: patent US20200199241A1 (Chugai, published 2020)

B1: IgG1-F1048 (antibody)
heavy: QVQLQESGPGLVKPSETLSLTCAVSGHSISHDHAWSWVRQPPGEGLEWIGFISYSGITNYNPSLQGRVTISRDNSKNTLYLQMNSLRAEDTAVYYCARSLARTTAMDYWGEGTLVTVSSASTKGPSVFPLAPSSKSTSGGTAALGCLVKDYFPEPVTVSWNSGALTSGVHTFPAVLQSSGLYSLSSVVTVPSSSLGTQTYICNVNHKPSNTKVDKKVEPKSCDKTHTCPPCPAPELKGGPKVFLFPPKPKDTLYISRTPEVTCVVVDVSHEDPEVKFNWYVDGVEVHNAKTKPREEQYNSTYRVVSVLAVLHHDWLNGKEYKCKVSNKALPAPIEKTISKAKGQPREPQVYTLPPSRDELTKNQVSLTCLVKGFYPSDIAVEWESNGQPENNYKTTPPVLDSDGSFFLYSKLTVDKSRWQQGNVFSCSVMHEALHYHVTQKSLSLSP
light: not shown
notes: EU numbering; copies: 2 + 2
B2: IgG1-F1052 (antibody)
heavy: QVQLQESGPGLVKPSETLSLTCAVSGHSISHDHAWSWVRQPPGEGLEWIGFISYSGITNYNPSLQGRVTISRDNSKNTLYLQMNSLRAEDTAVYYCARSLARTTAMDYWGEGTLVTVSSASTKGPSVFPLAPSSKSTSGGTAALGCLVKDYFPEPVTVSWNSGALTSGVHTFPAVLQSSGLYSLSSVVTVPSSSLGTQTYICNVNHKPSNTKVDKKVEPKSCDKTHTCPPCPAPELRGGPKVFLFPPKPKDTLYISRTPEVTCVVVDVSHEDPEVKFNWYVDGVEVHEAKTKPREEQYNSTYRVVSVLQPLHADWLNGKEYKCKVSNKALPAPIEKTISKAKGQPREPQVYTLPPSRDELTKNQVSLTCLVKGFYPSDIAVEWESNGQPENNYKTTPPVLDSDGSFFLYSKLTVDKSRWQQGNVFSCSVIHEALHYHVTQKSLSLSP
light: not shown
notes: EU numbering; copies: 2 + 2
B3: IgG1-F1053 (antibody)
heavy: QVQLQESGPGLVKPSETLSLTCAVSGHSISHDHAWSWVRQPPGEGLEWIGFISYSGITNYNPSLQGRVTISRDNSKNTLYLQMNSLRAEDTAVYYCARSLARTTAMDYWGEGTLVTVSSASTKGPSVFPLAPSSKSTSGGTAALGCLVKDYFPEPVTVSWNSGALTSGVHTFPAVLQSSGLYSLSSVVTVPSSSLGTQTYICNVNHKPSNTKVDKKVEPKSCDKTHTCPPCPAPELRGGPKVFLFPPKPKDVLYISRTPEVTCVVVDVSHEDPEVKFNWYVDGVEVHNAKTKPREEQYNSTYRVVSVLQVLHADWLNGKEYKCKVSNKALPAPIEKTISKAKGQPREPQVYTLPPSRDELTKNQVSLTCLVKGFYPSDIAVEWESNGQPENNYKTTPPVLDSDGSFFLYSKLTVDKSRWQQGNVFSCSVMHEALHYHVTQKSLSLSP
light: not shown
notes: EU numbering; copies: 2 + 2
B4: IgG1-F1051 (antibody)
heavy: QVQLQESGPGLVKPSETLSLTCAVSGHSISHDHAWSWVRQPPGEGLEWIGFISYSGITNYNPSLQGRVTISRDNSKNTLYLQMNSLRAEDTAVYYCARSLARTTAMDYWGEGTLVTVSSASTKGPSVFPLAPSSKSTSGGTAALGCLVKDYFPEPVTVSWNSGALTSGVHTFPAVLQSSGLYSLSSVVTVPSSSLGTQTYICNVNHKPSNTKVDKKVEPKSCDKTHTCPPCPAPELRGGPKVFLFPPKPKDVLYISRTPEVTCVVVDVSHEDPEVKFNWYVDGVEVHEAKTKPREEQYNSTYRVVSVLQPLHADWLNGKEYKCKVSNKALPAPIEKTISKAKGQPREPQVYTLPPSRDELTKNQVSLTCLVKGFYPSDIAVEWESNGQPENNYKTTPPVLDSDGSFFLYSKLTVDKSRWQQGNVFSCSVIHEALHYHVTQKSLSLSP
light: not shown
notes: EU numbering; copies: 2 + 2
B5: IgG1-F1050 (antibody)
heavy: QVQLQESGPGLVKPSETLSLTCAVSGHSISHDHAWSWVRQPPGEGLEWIGFISYSGITNYNPSLQGRVTISRDNSKNTLYLQMNSLRAEDTAVYYCARSLARTTAMDYWGEGTLVTVSSASTKGPSVFPLAPSSKSTSGGTAALGCLVKDYFPEPVTVSWNSGALTSGVHTFPAVLQSSGLYSLSSVVTVPSSSLGTQTYICNVNHKPSNTKVDKKVEPKSCDKTHTCPPCPAPELLGGPSVFLFPPKPKDVLYISRTPEVTCVVVDVSHEDPEVKFNWYVDGVEVHEAKTKPREEQYNSTYRVVSVLQPLHADWLNGKEYKCKVSNKALPAPIEKTISKAKGQPREPQVYTLPPSRDELTKNQVSLTCLVKGFYPSDIAVEWESNGQPENNYKTTPPVLDSDGSFFLYSKLTVDKSRWQQGNVFSCSVIHEALHYHVTQKSLSLSP
light: not shown
notes: EU numbering; copies: 2 + 2

molecular target: T1, soluble human FcRn complexed with β2-microglobulin (human, UniProt P61769 21-119, limits assumed); assay: Biacore SPR, pH 7.0;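 note: test antibodies captured on a Protein L chip with human FcRn flowed over as analyte, KD obtained as the ratio of dissociation to association rate constants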
T1 construct: also called hFcRn
T1 sequence (chain, as listed by the source limits assumed, chain 1 of 2): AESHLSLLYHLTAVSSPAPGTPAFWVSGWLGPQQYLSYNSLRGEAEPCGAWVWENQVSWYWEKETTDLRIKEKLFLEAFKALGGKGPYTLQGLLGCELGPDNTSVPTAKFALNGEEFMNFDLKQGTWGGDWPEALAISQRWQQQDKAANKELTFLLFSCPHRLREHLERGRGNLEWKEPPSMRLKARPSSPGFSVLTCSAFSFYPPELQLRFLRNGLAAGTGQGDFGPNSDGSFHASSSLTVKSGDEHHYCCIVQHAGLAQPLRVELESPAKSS
T1 sequence (P61769 21-119 limits assumed, chain 2 of 2): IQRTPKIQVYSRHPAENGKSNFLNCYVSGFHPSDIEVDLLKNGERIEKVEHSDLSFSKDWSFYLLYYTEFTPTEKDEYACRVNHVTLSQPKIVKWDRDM

Q: How did the Kd turn out when B1 was run?
A: The Kd was 99 nM.

Q: Which Kd does the source give for B2 here?
A: Its Kd is 3.2 nM.

Q: B3 was tested. Which Kd did it give?
A: Its Kd is 42.3 nM.

Q: B4 was tested. Which Kd did it give?
A: The Kd was 3.9 nM.

Q: With B5 as the binder, how does the Kd read?
A: Its Kd is 3.5 nM.
